Measurements from patent US20140228277A1 (Genentech, published 2014).
Starred links: 1 amine or outer side, 2 acyl side, 3 side chain; linkers in the order of their positions; H or OH if unused. Positions of bridges follow the written chain, without caps; N, C: chain ends. NH(CH2)3(OCH2CH2)2O(CH2)3NH = C(CN[*:1])COCCOCCOCCCN[*:2]

Legend:
Assay in all cases: ELISA; biotinylated BACE020 on plate-coated BACE1 ECD mutant; ratio to WT
[1] = target: T1, human BACE1 ECD (22-457) Q134A, His8 (human, UniProt P56817 22-457)
T1 construct: also called Q134A (73)
T1 sequence (P56817 other isoform, or with tags, fused parts or gaps Q134A Q134A): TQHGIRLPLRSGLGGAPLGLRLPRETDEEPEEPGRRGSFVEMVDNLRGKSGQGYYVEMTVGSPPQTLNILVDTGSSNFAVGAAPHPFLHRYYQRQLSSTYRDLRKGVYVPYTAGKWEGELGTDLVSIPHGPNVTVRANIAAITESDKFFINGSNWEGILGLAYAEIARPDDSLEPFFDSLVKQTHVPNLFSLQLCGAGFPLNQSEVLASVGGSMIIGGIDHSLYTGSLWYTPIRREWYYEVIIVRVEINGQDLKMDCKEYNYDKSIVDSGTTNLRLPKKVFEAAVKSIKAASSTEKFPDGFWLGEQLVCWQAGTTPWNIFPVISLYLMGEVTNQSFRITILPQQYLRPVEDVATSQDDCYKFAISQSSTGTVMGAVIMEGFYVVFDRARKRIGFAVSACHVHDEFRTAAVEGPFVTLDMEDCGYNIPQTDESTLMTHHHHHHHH
Procedure: (§1) Maxisorp microtiter plates (Nalge Nunc International, Rochester, N.Y.) were coated overnight at 4° C. with 2 μg/ml BACE1 mutant in 50 mM carbonate, pH 9.6. The coated wells were washed with buffer (PBS, 0.05% Polysorbate 20) and blocked with assay buffer (PBS, pH 7.4, 0.5% BSA, 0.05% Tween 20, 15 ppm Proclin) for 1 h at room temperature with gentle shaking. […] After washing, the amount of peptide bound to the plate was detected by the addition of Streptavidin-Horseradish Peroxidase Conjugate (GE Healthcare, Piscataway, N.J.) followed by the addition of TMB/H₂O₂ substrate (KPL, Gaithersburg, Md.). The reaction was quenched with 1 M phosphoric acid and the A₄₅₀ measured on a Molecular Devices SpectraMax Plus384 microplate reader. Concentrations to give half maximal effective concentration (EC₅₀) were determined using a 4-parameter non-linear regression curve-fitting program with Kaleidagraph (Synergy Software, Reading, Pa.). […] Concentrations to give half maximal inhibition concentration (IC₅₀) were determined using a 4-parameter non-linear regression curve-fitting program with Kaleidagraph.
(§2) The fold decrease in binding affinity was determined as the relative EC₅₀ values of EC₅₀ (mut)/EC₅₀ (WT), which are listed in Table 3.

[2] = target: T2, human BACE1 ECD (22-457) T390A, His8 (human, UniProt P56817 22-457)
T2 construct: also called T390A (329)
T2 sequence (P56817 other isoform, or with tags, fused parts or gaps T390A T390A): as the sequence (P56817 other isoform, or with tags, fused parts or gaps Q134A Q134A) above, with A113Q, T369A counted along it
Procedure: as §1, §2

[3] = target: T3, human BACE1 ECD (22-457) K382A, His8 (human, UniProt P56817 22-457)
T3 construct: also called K382A (321)
T3 sequence (P56817 other isoform, or with tags, fused parts or gaps K382A K382A): as the sequence (P56817 other isoform, or with tags, fused parts or gaps Q134A Q134A) above, with A113Q, K361A counted along it
Procedure: as §1, §2

[4] = target: T4, human BACE1 ECD (22-457) Q73A, His8 (human, UniProt P56817 22-457)
T4 construct: also called Q73A (12)
T4 sequence (P56817 other isoform, or with tags, fused parts or gaps Q73A Q73A): as the sequence (P56817 other isoform, or with tags, fused parts or gaps Q134A Q134A) above, with Q52A, A113Q counted along it
Procedure: as §1, §2

[5] = target: T5, human BACE1 ECD (22-457) W176A, His8 (human, UniProt P56817 22-457)
T5 construct: also called W176A (115)
T5 sequence (P56817 other isoform, or with tags, fused parts or gaps W176A W176A): as the sequence (P56817 other isoform, or with tags, fused parts or gaps Q134A Q134A) above, with A113Q, W155A counted along it
Procedure: as §1, §2

[6] = target: T6, human BACE1 ECD (22-457) R296A, His8 (human, UniProt P56817 22-457)
T6 construct: also called R296A (235)
T6 sequence (P56817 other isoform, or with tags, fused parts or gaps R296A R296A): as the sequence (P56817 other isoform, or with tags, fused parts or gaps Q134A Q134A) above, with A113Q, R275A counted along it
Procedure: as §1, §2

[7] = target: T7, human BACE1 ECD (22-457) I171A, His8 (human, UniProt P56817 22-457)
T7 construct: also called I171A (110)
T7 sequence (P56817 other isoform, or with tags, fused parts or gaps I171A I171A): as the sequence (P56817 other isoform, or with tags, fused parts or gaps Q134A Q134A) above, with A113Q, I150A counted along it
Procedure: as §1, §2

Fold Decrease in Binding EC50 (Mut)/EC50 (WT) [1]: 1990 fold
Fold Decrease in Binding EC50 (Mut)/EC50 (WT) [2]: 0.9 fold
Fold Decrease in Binding EC50 (Mut)/EC50 (WT) [3]: 4.5 fold
Fold Decrease in Binding EC50 (Mut)/EC50 (WT) [4]: 1.7 fold
Fold Decrease in Binding EC50 (Mut)/EC50 (WT) [5]: 690 fold
Fold Decrease in Binding EC50 (Mut)/EC50 (WT) [6]: 70.9 fold
Fold Decrease in Binding EC50 (Mut)/EC50 (WT) [7]: 1020 fold
B1: biotinylated BACE020 (Ac-NEESMYCRLLGIGCG-(PEG)3-biotin) (peptide)
peptide: Ac-NEESMYCRLLGIGCG-{NH(CH2)3(OCH2CH2)2O(CH2)3NH-biotin}
modifications: disulfide 7-14
notes: also called C-terminal biotin tagged BACE020 peptide
